{
  "source": "paper PMC3657141",
  "about": "“Directed evolution to re-adapt a co-evolved network within an enzyme” (Journal of Biotechnology, 2012)",
  "substrate": "CCC=O",
  "assay": "purified protein",
  "assay_type": "biochemical, Escherichia coli",
  "conditions": "50 mM LiHPA, 2.4 mM TPP, 9 mM MgCl2, 250 mM NaCl, 50 mM Tris-HCl, pH 7.0, 21 °C",
  "data": [
    {"protein": "transketolase (TK) (Escherichia coli K-12; D469S) (protein, 680 residues; homodimer) MSSRKELANAIRALSMDAVQKAKSGHPGAPMGMADIAEVLWRDFLKHNPQNPSWADRDRFVLSNGHGSMLIYSLLHLTGYDLPMEELKNFRQLHSKTPGHPEVGYTAGVETTTGPLGQGIANAVGMAIAEKTLAAQFNRPGHDIVDHYTYAFMGDGCMMEGISHEVCSLAGTLKLGKLIAFYDDNGISIDGHVEGWFTDDTAMRFEAYGWHVIRDIDGHDAASIKRAVEEARAVTDKPSLLMCKTIIGFGSPNKAGTHDSHGAPLGDAEIALTREQLGWKYAPFEIPSEIYAQWDAKEAGQAKESAWNEKFAAYAKAYPQEAAEFTRRMKGEMPSDFDAKAKEFIAKLQANPAKIASRKASQNAIEAFGPLLPEFLGGSADLAPSNLTLWSGSKAINEDAAGNYIHYGVREFGMTAIANGISLHGGFLPYTSTFLMFVEYARNAVRMAALMKQRQVMVYTHDSIGLGESGPTHQPVEQVASLRVTPNMSTWRPCDQVESAVAWKYGVERQDGPTALILSRQNLAQQERTEEQLANIARGGYVLKDCAGQPELIFIATGSEVELAVAAYEKLTAEGVKARVVSMPSTDAFDKQDAAYRESVLPKAVTARVAVEAGIADYWYKYVGLNGAIVGMTTFGESAPAELLFEEFGFTVDNVVAKAKELL", "values": [
      {"measurement": "Km", "value": 70.8, "unit": "mM"},
      {"measurement": "kcat", "value": "0.952 ± 0.0567", "unit": "s⁻¹"},
      {"measurement": "kcat/Km", "value": "13.5 ± 0.333", "unit": "M⁻¹ s⁻¹"}
    ]}
  ]
}
